# Assay results published in US20220227840A1.
# pKd: −log10 of the molar value.
# Molecular target: tissue factor (TF) extracellular domains (UniProt P13726)
# Test: SPR, TF on chip
# Details: not given
# Target sequence in this assay (P13726 33-251 limits assumed): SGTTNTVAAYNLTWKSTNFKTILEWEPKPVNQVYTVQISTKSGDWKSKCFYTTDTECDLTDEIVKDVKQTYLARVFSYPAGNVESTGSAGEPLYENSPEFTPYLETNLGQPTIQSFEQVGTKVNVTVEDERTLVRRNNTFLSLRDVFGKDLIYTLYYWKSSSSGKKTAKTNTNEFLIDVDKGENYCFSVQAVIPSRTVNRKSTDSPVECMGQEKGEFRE
row,Substance,pKd
1,D3H44 Fab H:D146G_Q179K L:Q124E_Q160E_T180E,10.62
2,D3H44 Fab H:F174V_P175S_S188G L:S176L,10.40
3,D3H44 Fab H:L143E_K145T L:Q160K_T178R,10.22
4,D3H44 WT Fab with FLAG-tagged light chain,10.21

# Results, then the substance that gave them:
row,pKd,Substance
1,10.09,D3H44 Fab H:D146G_Q179R L:Q124E_Q160E_T178D
2,10.07,D3H44 Fab H:K145T_Q179D_S188F L:V133A_Q160K_T178R
3,10.15,D3H44 Fab H:K145T_Q179D_S188L L:Q160K_T178R
4,10.06,D3H44 Fab H:L143A_D146G_Q179R L:Q124E_V133W_Q160E_T180E
5,10.60,D3H44 Fab H:Q39D_A139G_V190A L:Q38R_L135W
6,10.37,D3H44 Fab H:S188L_V190Y L:V133S
7,10.28,D3H44 WT Fab with HA-tagged light chain

# Molecular target: tissue factor (TF) extracellular domains (UniProt P13726)
# Test: SPR, TF on chip
# Details: not given
# Remark: another data set of the same source
# Target sequence in this assay (P13726 33-251 limits assumed): as above
row,Substance,pKd
1,D3H44 Fab H:A139I L:F118W_V133S,10.28
2,D3H44 Fab H:A139I_K145T_D146G_Q179E_S188G_V190S L:F116A_V133G_S176F_T178A,10.39
3,D3H44 Fab H:D146G_Q179K L:Q124E_Q160E_T180E,10.61
4,D3H44 Fab H:D146G_Q179K L:Q124E_V133W_Q160E_T180E,10.08
5,D3H44 Fab H:D146G_Q179R L:Q124E_Q160E_T180E,10.11
6,D3H44 Fab H:D146G_Q179R L:Q124E_V133W_Q160E_T180E,10.20
7,D3H44 Fab H:D146G_S186R L:Q124E_Q160E_T178D,10.29
8,D3H44 Fab H:D146G_S186R L:Q124E_Q160E_T180E,10.17
9,D3H44 Fab H:F100M_W103V L:P44W_L89W,8.81
10,D3H44 Fab H:F174V_P175S_S188G L:S176L,10.40
11,D3H44 Fab H:F174V_S188L L:V133S,10.70
12,D3H44 Fab H:F174V_S188L L:WT,10.42
13,D3H44 Fab H:F174W_S188L L:S176G,10.81
14,D3H44 Fab H:F174W_S188L L:V133S,10.76
15,D3H44 Fab H:F174W_S188L L:WT,10.57
16,D3H44 Fab H:K145E_D146G_Q179D_S188L L:Q160K_T178R,10.38
17,D3H44 Fab H:K145L_Q179E L:S131K,10.18
18,D3H44 Fab H:K145T_Q179D_S188L L:V133A_Q160K_T178R,10.37
19,D3H44 Fab H:L45W L:Y87G,9.71
20,D3H44 Fab H:L143E_K145T L:Q124R,10.22
21,D3H44 Fab H:L143E_K145T L:Q160K_T178R,10.63

row,Substance,pKd
1,D3H44 Fab H:L143K_D146G L:Q124E_V133D,10.61
2,D3H44 Fab H:Q39D L:Q38R_F98W,9.90
3,D3H44 Fab H:Q39E L:Q38N_T85K,10.70
4,D3H44 Fab H:Q39E L:Q38R_F98W,9.79
5,D3H44 Fab H:Q39K L:Q38N_T85E,10.67
6,D3H44 Fab H:Q39K L:Q38N_T85E_F98W,10.87
7,D3H44 Fab H:Q39M L:Q38M,10.56
8,D3H44 Fab H:Q39R L:Q38D_F98W,9.90
9,D3H44 Fab H:Q39R L:Q38E_F98W,9.75
10,D3H44 Fab H:S186K_S188H_V190G L:F118W_Q124E_V133S_S176A_T178S_T180E,10.21
11,D3H44 Fab H:S186R L:Q124E_Q160E_T178D,9.90
12,D3H44 Fab H:S188L L:V133S,10.84
13,D3H44 Fab H:S188L L:WT,10.47
14,D3H44 Fab H:V37A_Q39R_W103V L:Q38E_P44W,9.01
15,D3H44 Fab H:V37E L:L89R_F98T,8.62
16,D3H44 Fab H:V37I_Q39D L:Q38R_F98W,9.75
17,D3H44 Fab H:V37I_Q39E L:Q38N_T85K,10.74
18,D3H44 Fab H:V37I_Q39E L:Q38N_T85K_F98W,9.90
19,D3H44 Fab H:V37I_Q39E L:Q38R_F98W,10.14
20,D3H44 Fab H:V37I_Q39R L:Q38D_F98W,10.00
21,D3H44 Fab H:V37I_Q39R L:Q38E,9.91

row,Substance,pKd
1,D3H44 Fab H:V37I_Q39R L:Q38E_F98W,9.84
2,D3H44 Fab H:V37S_A93K L:F98Y,9.38
3,D3H44 Fab H:V37T_A93Q_W103T L:P44W_F98W,8.88
4,D3H44 Fab H:V37T_A93Q_W103V L:P44W_F98W,9.72
5,D3H44 Fab H:V37W L:F98A,8.46
6,D3H44 Fab H:V37W_A93V L:F98A,9.16
7,D3H44 Fab H:V37W_F100W_W103L L:F98A,8.91
8,D3H44 Fab H:V37W_Q39D L:Q38R_F98A,8.76
9,D3H44 Fab H:V37W_Q39D_W103F L:Q38R_F98L,9.03
10,D3H44 Fab H:V37W_Q39E L:Q38N_T85K_F98A,9.06
11,D3H44 Fab H:V37W_Q39E L:Q38R_F98A,9.04
12,D3H44 Fab H:V37W_Q39E_W103F L:Q38N_T85K_F98L,8.60
13,D3H44 Fab H:V37W_Q39E_W103F L:Q38R_F98L,9.76
14,D3H44 Fab H:V37W_Q39K_W103F L:Q38N_T85E_F98L,9.01
15,D3H44 Fab H:W103H L:P44W_F98W,9.67
16,D3H44 Fab H:W103H L:P44W_L89W_F98A,8.47
17,D3H44 Fab H:W103V L:P44W_L89W_F98A,8.38
18,D3H44 Fab H:WT L:F98W,10.96
19,Wild-type anti-TF D3H44 Fab,10.25

# Continued, values first:
row,pKd,Substance
1,10.23,D3H44 Fab H:A139G_V190A L:L135W
2,10.28,D3H44 Fab H:D146G_Q179K L:Q124E_Q160E_T178D
3,10.09,D3H44 Fab H:D146G_Q179R L:Q124E_Q160E_T178D
4,10.10,D3H44 Fab H:F174G_S188A L:WT
5,10.02,D3H44 Fab H:F174V_S188L L:S176G
6,10.66,D3H44 Fab H:K145E_D146G_Q179D_S188F L:V133A_Q160K_T178R
7,9.95,D3H44 Fab H:K145T_Q179D_S188F L:Q160K_T178R
8,10.07,D3H44 Fab H:K145T_Q179D_S188F L:V133A_Q160K_T178R
9,10.15,D3H44 Fab H:K145T_Q179D_S188L L:Q160K_T178R
10,10.06,D3H44 Fab H:L143A_D146G_Q179R L:Q124E_V133W_Q160E_T180E
11,10.11,D3H44 Fab H:L143E_K145T L:Q124R_Q160K_T178R
12,9.93,D3H44 Fab H:Q39D_A139G_V190A L:Q38R_L135W
13,10.46,D3H44 Fab H:Q39E L:Q38N_T85K_F98W
14,10.64,D3H44 Fab H:Q39R L:Q38D
15,10.06,D3H44 Fab H:S188L L:S176G
16,10.37,D3H44 Fab H:S188L_V190Y L:V133S
17,9.26,D3H44 Fab H:V37A_Q39E_W103V L:Q38N_P44W_T85K
18,9.08,D3H44 Fab H:V37A_Q39K_W103H L:Q38N_P44W_T85E
19,9.62,D3H44 Fab H:V37I_W103H L:P44W_F98W
20,8.10,D3H44 Fab H:V37W_Q39D_W103H L:Q38R_F98L
21,8.75,D3H44 Fab H:V37W_Q39K L:Q38N_T85E_F98A
22,8.50,D3H44 Fab H:V37W_Q39R L:Q38E_F98A
23,8.95,D3H44 Fab H:V37W_Q39R_W103F L:Q38E_F98L
24,8.25,D3H44 Fab H:V37W_Q39R_W103H L:Q38D_F98L
25,8.52,D3H44 Fab H:V37W_Q39R_W103H L:Q38E_F98L
26,9.02,D3H44 Fab H:V37W_W103F L:F98L
27,9.76,D3H44 Fab H:W103V L:P44W_F98W
28,9.62,D3H44 Fab H:WT L:L89F_F98W

# Molecular target: tissue factor (TF) extracellular domains (UniProt P13726)
# Test: not given
# Details: Fab
# Target sequence in this assay (P13726 33-251): as the sequence (P13726 33-251 limits assumed) above
row,pKd,Substance
1,9.01,D3H44 Fab H:V37W L:F98A
